Source: the RNAGym collection of RNA variant scans (doi:10.7554/elife.80360)

B1: HDV Ribozyme (parent)
chain: GGCCGGCAUGGUCCCAGCCUCCUCGCUGGCGCCGGCUGGGCAACAUUCCGAGGGGACCGUCCCCUCGGUAAUGGCGAAUGGGACCCA

Variants of: B1
Assay: self-cleavage, relative activity (ratio to wild type); higher = more cleavage; co-transcriptional

Compared with GGCCGGCAUGGUCCCAGCCUCCUCGCUGGCGCCGGCUGGGCAACAUACCGAGGGGACCGUCCCCUCGGUAAUGGCGAAUAGGACCCA, GGCCGGCAUGGUCCCAGCCUCCUCGCUGGCGCCGGCUGGGCAACAUACCGAGGGGACCGUCCCCUCGGUAAUGGCGAAUGGGAUCCA is higher in self-cleavage: 0.277 for the first, 0.735 for the second.

Going from GGCCGGCAUGGUCCCAGCCUCCUCGCUGGCGCCGGCUGGGCAACAUACCGAGGGGACCGUCCCCUCGGUAAUGGCGAAUGGGAGCCA to GGCCGGCAUGGUCCCAGCCUCCUCGCUGGCGCCGGCUGGGCAACAGUCCGAGGGGACCGUCCCCUCGGUAAUGUCGAAUGGGACCCA, the self-cleavage falls from 0.831 to 0.529.

Compared with GGCCGGCAUGGUCCCAGCCUCCUCGCUGGCGCCGGCUGGGCAACAUACCGAGGGGACCGUCCACUCGGUAAUGGCGAAUGGGACCCA, GGCCGGCAUGGUCCCAGCCUCCUCGCUGGCGCCGGCUGGGCAACAUACCGAGGGGACCGUCCGCUCGGUAAUGGCGAAUGGGACCCA is lower in self-cleavage: 0.96 for the first, 0.653 for the second.

Compared with GGCCGGCAUGGUCCCAGCCUCCUCGCUGGCGCCGGCUGGGCAACAGUCCGAGGGGACCGUCCCCUCGGUAAUGGCGAAUGGAACCCA, GGCCGGCAUGGUCCCAGCCUCCUCGCUGGCGCCGGCUGGGCAACAUACCGAGGGGACCGUCCCCUCGGUAAUGGGGAAUGGGACCCA is higher in self-cleavage: 0.161 for the first, 0.172 for the second.

Going from GGCCGGCAUGGUCCCAGCCUCCUCGCUGGCGCCGGCUGGGCAACAUACCGAGGGGACCCUCCCCUCGGUAAUGGCGAAUGGGACCCA to GGCCGGCAUGGUCCCAGCCUCCUCGCUGGCGCCGGCUGGGCAACAGUCCGAAGGGACCGUCCCCUCGGUAAUGGCGAAUGGGACCCA, the self-cleavage falls from 1.11 to 0.297.

First: GGCCGGCAUGGUCCCAGCCUCCUCGCUGGCGCCGGCUGGGCAACAGUCCGAGGGGAGCGUCCCCUCGGUAAUGGCGAAUGGGACCCA
Second: GGCCGGCAUGGUCCCAGCCUCCUCGCUGGCGCCGGCUGGGCAACAUACCGAGGGGACCGCCCCCUCGGUAAUGGCGAAUGGGACCCA
The self-cleavage of the first is lower: 0.804 for the first, 0.88 for the second.

Compared with GGCCGGCAUGGUCCCAGCCUCCUCGCUGGCGCCGGCUGGGCAACAGUCUGAGGGGACCGUCCCCUCGGUAAUGGCGAAUGGGACCCA, GGCCGGCAUGGUCCCAGCCUCCUCGCUGGCGCCGGCUGGGCAACAUCCCGAGGGGACCGUCCCCUCGGUAGUGGCGAAUGGGACCCA is higher in self-cleavage: 0.8 for the first, 1.13 for the second.

Compared with GGCCGGCAUGGUCCCAGCCUCCUCGCUGGCGCCGGCUGGGCAACAUCCCGAGGGGACCGUCCCCUCGGUAUUGGCGAAUGGGACCCA, GGCCGGCAUGGUCCCAGCCUCCUCGCUGGCGCCGGCUGGGCAACAUACCGAGGGGACCGUCCCCUCGGUAAUGGCGAAUGGGACGCA is lower in self-cleavage: 1.11 for the first, 0.665 for the second.

First: GGCCGGCAUGGUCCCAGCCUCCUCGCUGGCGCCGGCUGGGCAACAGUCCGAGGGGACCGUCCCCUCGGCAAUGGCGAAUGGGACCCA
Second: GGCCGGCAUGGUCCCAGCCUCCUCGCUGGCGCCGGCUGGGCAACAUACCGAGGGGACCGUCCCCUCGGUAAUGGCGAAUGAGACCCA
The self-cleavage of the first is higher: 0.582 for the first, 0.341 for the second.

Compared with GGCCGGCAUGGUCCCAGCCUCCUCGCUGGCGCCGGCUGGGCAACAUACUGAGGGGACCGUCCCCUCGGUAAUGGCGAAUGGGACCCA, GGCCGGCAUGGUCCCAGCCUCCUCGCUGGCGCCGGCUGGGCAACAGUCCGAGGGGACAGUCCCCUCGGUAAUGGCGAAUGGGACCCA is lower in self-cleavage: 0.972 for the first, 0.639 for the second.

First: GGCCGGCAUGGUCCCAGCCUCCUCGCUGGCGCCGGCUGGGCAACAGUCCGAGGGGACUGUCCCCUCGGUAAUGGCGAAUGGGACCCA
Second: GGCCGGCAUGGUCCCAGCCUCCUCGCUGGCGCCGGCUGGGCAACAUACCGAGGGGAUCGUCCCCUCGGUAAUGGCGAAUGGGACCCA
The self-cleavage of the first is lower: 0.532 for the first, 0.944 for the second.

First: GGCCGGCAUGGUCCCAGCCUCCUCGCUGGCGCCGGCUGGGCAACAGUCCGAGGGGACCGUCCCCUCGGUAAUGGAGAAUGGGACCCA
Second: GGCCGGCAUGGUCCCAGCCUCCUCGCUGGCGCCGGCUGGGCAACAGUCCGAGGGGACCGUCCCCUCGGUAAUGGGGAAUGGGACCCA
The self-cleavage of the first is higher: 0.208 for the first, 0.0639 for the second.

First: GGCCGGCAUGGUCCCAGCCUCCUCGCUGGCGCCGGCUGGGCAACAUACCCAGGGGACCGUCCCCUCGGUAAUGGCGAAUGGGACCCA
Second: GGCCGGCAUGGUCCCAGCCUCCUCGCUGGCGCCGGCUGGGCAACAUACCUAGGGGACCGUCCCCUCGGUAAUGGCGAAUGGGACCCA
The self-cleavage of the first is lower: 0.855 for the first, 1.18 for the second.

First: GGCCGGCAUGGUCCCAGCCUCCUCGCUGGCGCCGGCUGGGCAACAUACCGAGGGGACCGUCCCCUCGGUAGUGGCGAAUGGGACCCA
Second: GGCCGGCAUGGUCCCAGCCUCCUCGCUGGCGCCGGCUGGGCAACAGUCCGAGGGGACCGUCCCCUCGGUAAUGGCGAACGGGACCCA
The self-cleavage of the first is higher: 1.03 for the first, 0.0519 for the second.

Compared with GGCCGGCAUGGUCCCAGCCUCCUCGCUGGCGCCGGCUGGGCAACAGUCCGAGGGGACCGUCCCCUCGGUAAUGGCGAAGGGGACCCA, GGCCGGCAUGGUCCCAGCCUCCUCGCUGGCGCCGGCUGGGCAACAUAACGAGGGGACCGUCCCCUCGGUAAUGGCGAAUGGGACCCA is higher in self-cleavage: 0.787 for the first, 0.973 for the second.

First: GGCCGGCAUGGUCCCAGCCUCCUCGCUGGCGCCGGCUGGGCAACAGUCCGAGGGGACCGUCGCCUCGGUAAUGGCGAAUGGGACCCA
Second: GGCCGGCAUGGUCCCAGCCUCCUCGCUGGCGCCGGCUGGGCAACAUACCGAGGGGACCGUCCCCUCGCUAAUGGCGAAUGGGACCCA
The self-cleavage of the first is lower: 0.0755 for the first, 0.982 for the second.

First: GGCCGGCAUGGUCCCAGCCUCCUCGCUGGCGCCGGCUGGGCAACAUCCCGAGGGGACCGUCCCCUCGGUAAUGGCGGAUGGGACCCA
Second: GGCCGGCAUGGUCCCAGCCUCCUCGCUGGCGCCGGCUGGGCAACAUACCGAGGGGACCGUCCCCUCGGUAAUGGCGAAUGGAACCCA
The self-cleavage of the first is higher: 0.612 for the first, 0.298 for the second.

First: GGCCGGCAUGGUCCCAGCCUCCUCGCUGGCGCCGGCUGGGCAACAUACCGAGGGGACCGUCCCCUCGGUAAUGGCGAAUGGUACCCA
Second: GGCCGGCAUGGUCCCAGCCUCCUCGCUGGCGCCGGCUGGGCAACAGUCCGAGGGGACCCUCCCCUCGGUAAUGGCGAAUGGGACCCA
The self-cleavage of the first is lower: 0.142 for the first, 0.831 for the second.

Compared with GGCCGGCAUGGUCCCAGCCUCCUCGCUGGCGCCGGCUGGGCAACAGUCCGAGGGUACCGUCCCCUCGGUAAUGGCGAAUGGGACCCA, GGCCGGCAUGGUCCCAGCCUCCUCGCUGGCGCCGGCUGGGCAACAGUCCGAGGGGACCGUCCCCUCGGUAAUGGCGAAUAGGACCCA is lower in self-cleavage: 0.569 for the first, 0.0811 for the second.

Compared with GGCCGGCAUGGUCCCAGCCUCCUCGCUGGCGCCGGCUGGGCAACAUACCGAGGGGACCGUACCCUCGGUAAUGGCGAAUGGGACCCA, GGCCGGCAUGGUCCCAGCCUCCUCGCUGGCGCCGGCUGGGCAACAUACCGAGGGGACCGUUCCCUCGGUAAUGGCGAAUGGGACCCA is lower in self-cleavage: 0.886 for the first, 0.814 for the second.

Compared with GGCCGGCAUGGUCCCAGCCUCCUCGCUGGCGCCGGCUGGGCAACAUACCGAGGGGGCCGUCCCCUCGGUAAUGGCGAAUGGGACCCA, GGCCGGCAUGGUCCCAGCCUCCUCGCUGGCGCCGGCUGGGCAACAGUCCGAGGGGACCGUCCCCUCGGUAAGGGCGAAUGGGACCCA is lower in self-cleavage: 0.965 for the first, 0.623 for the second.

Compared with GGCCGGCAUGGUCCCAGCCUCCUCGCUGGCGCCGGCUGGGCAACAGUCCGAGGGGACCGUCCCCCCGGUAAUGGCGAAUGGGACCCA, GGCCGGCAUGGUCCCAGCCUCCUCGCUGGCGCCGGCUGGGCAACAUACCGAGGGGACCGUCCCCUCGGUAAUGGCGGAUGGGACCCA is higher in self-cleavage: 0.615 for the first, 0.831 for the second.

Going from GGCCGGCAUGGUCCCAGCCUCCUCGCUGGCGCCGGCUGGGCAACAUACCGAGGAGACCGUCCCCUCGGUAAUGGCGAAUGGGACCCA to GGCCGGCAUGGUCCCAGCCUCCUCGCUGGCGCCGGCUGGGCAACAGUCCGAGGGGACCGUCCCCUCAGUAAUGGCGAAUGGGACCCA, the self-cleavage falls from 0.95 to 0.527.

First: GGCCGGCAUGGUCCCAGCCUCCUCGCUGGCGCCGGCUGGGCAACAGUCCGAGGGGACCGUCCCCUCGAUAAUGGCGAAUGGGACCCA
Second: GGCCGGCAUGGUCCCAGCCUCCUCGCUGGCGCCGGCUGGGCAACAGUCCGAGGGGACCGUCCCCUCGGUAAUCGCGAAUGGGACCCA
The self-cleavage of the first is higher: 0.608 for the first, 0.499 for the second.

Compared with GGCCGGCAUGGUCCCAGCCUCCUCGCUGGCGCCGGCUGGGCAACAUACCGAGGGGACCGUCCCCCCGGUAAUGGCGAAUGGGACCCA, GGCCGGCAUGGUCCCAGCCUCCUCGCUGGCGCCGGCUGGGCAACAGUCCGAGAGGACCGUCCCCUCGGUAAUGGCGAAUGGGACCCA is lower in self-cleavage: 0.8 for the first, 0.527 for the second.

Compared with GGCCGGCAUGGUCCCAGCCUCCUCGCUGGCGCCGGCUGGGCAACAUACCGAGGGGACCGUCCCCUCGGGAAUGGCGAAUGGGACCCA, GGCCGGCAUGGUCCCAGCCUCCUCGCUGGCGCCGGCUGGGCAACAUACCGAGGGGACCGUCCCCUCGGAAAUGGCGAAUGGGACCCA is lower in self-cleavage: 1.13 for the first, 1.02 for the second.

Going from GGCCGGCAUGGUCCCAGCCUCCUCGCUGGCGCCGGCUGGGCAACAUACCGAGGGGACCGUCCCCUCGGUAAUGGCGAACGGGACCCA to GGCCGGCAUGGUCCCAGCCUCCUCGCUGGCGCCGGCUGGGCAACAUACCGAGGGGACCGUCCCCUCGGUAAUGGCGAAAGGGACCCA, the self-cleavage rises from 0.312 to 0.598.

Compared with GGCCGGCAUGGUCCCAGCCUCCUCGCUGGCGCCGGCUGGGCAACAUACCGAGGGGACCGUCCCCUCGGUAAGGGCGAAUGGGACCCA, GGCCGGCAUGGUCCCAGCCUCCUCGCUGGCGCCGGCUGGGCAACAUACCGAGGGGACCGUCCCCUCGGUAAAGGCGAAUGGGACCCA is higher in self-cleavage: 0.665 for the first, 0.748 for the second.

First: GGCCGGCAUGGUCCCAGCCUCCUCGCUGGCGCCGGCUGGGCAACAUACCGAGGGGACCGUCCCCUCGGUAAUGGCGAAUGGGACCGA
Second: GGCCGGCAUGGUCCCAGCCUCCUCGCUGGCGCCGGCUGGGCAACAUACCGAGGGGACCGUCCCCUCGGUAAUGGCGAAUGGGACCUA
The self-cleavage of the first is lower: 0.733 for the first, 0.88 for the second.

Going from GGCCGGCAUGGUCCCAGCCUCCUCGCUGGCGCCGGCUGGGCAACAUACCGAGGGGACCGUCCCCUCGGUAAUGGCGAAUGGGACCAA to GGCCGGCAUGGUCCCAGCCUCCUCGCUGGCGCCGGCUGGGCAACAUCCCGAGGGGACCGUCCCCUCGGUAAUGGCGAUUGGGACCCA, the self-cleavage falls from 1.04 to 0.277.

First: GGCCGGCAUGGUCCCAGCCUCCUCGCUGGCGCCGGCUGGGCAACAUACCGAGAGGACCGUCCCCUCGGUAAUGGCGAAUGGGACCCA
Second: GGCCGGCAUGGUCCCAGCCUCCUCGCUGGCGCCGGCUGGGCAACAUCCCGAGGGGACCGUCCCCUCGGUCAUGGCGAAUGGGACCCA
The self-cleavage of the first is higher: 1.22 for the first, 0.739 for the second.

First: GGCCGGCAUGGUCCCAGCCUCCUCGCUGGCGCCGGCUGGGCAACAUCCCGGGGGGACCGUCCCCUCGGUAAUGGCGAAUGGGACCCA
Second: GGCCGGCAUGGUCCCAGCCUCCUCGCUGGCGCCGGCUGGGCAACAUACCGAGGGGACCGUCGCCUCGGUAAUGGCGAAUGGGACCCA
The self-cleavage of the first is higher: 0.969 for the first, 0.54 for the second.
